Key:
[1] = Bulk aggregation study (stirred aqueous solutions, aggregation visually observed); format: physicochemical; settings: aqueous solution 0.1 mg/ml insulin, stirred at 1555 rpm until aggregation visually observed or up to two weeks
Description: (§1) Bulk aggregation studies with free insulin compared with glycosylated insulins were carried out by two methods. In a bulk aggregation study, various aqueous insulin and glycosylated insulin solutions containing 0.1 mg/ml of insulin were stirred at 1555 rpm until aggregation was visually observed or up to two weeks. In a second test, solutions containing the same insulin concentration were deposited on polyurethane (Biomer) and microscopically observed for aggregation.

[2] = Aggregation test on polyurethane (Biomer), microscopically observed; format: physicochemical; settings: 0.1 mg/ml insulin solution deposited on polyurethane (Biomer)
Description: as §1

blood sugar level = assay: Blood sugar depression (BSD) test; format: in vivo; settings: rats fasted twenty hours, 1 mg/kg intraperitoneal, 20 minutes after injection; control (baseline) 64.62 ± 0.61
Description: The bioactivity of the glycosated insulins described herein was determined by a blood sugar depression test and compared to commercial insulin preparations and controls. In this test, replicates of standard laboratory rats were fasted for twenty hours. After measuring baseline blood sugar levels, a 1 mg/kg dose of either free or glycosylated insulin was injected via an intraperitoneal route. The blood sugar level in each rat was measured colormetrically 20 minutes after the injection.

For “p-(α-D-glucopyranosyloxy)-phenyl-thiocarbamoyl Insulin”, the “Time required for aggregation, Bulk” value [1] was 2 weeks, the “Time required for aggregation, Polyurethane” value (“Time required … Polyurethane” below) [2] was 8 days and the “Blood Sugar Concentration after 20 min. IP. injection (± S.E.M.)” value (from here on “Blood Sugar Concentration”) (blood sugar level) was 44.67 ± 2.21 mg/dL.

With “p-(α-D-mannopyranosyloxy)-phenyl-N-glutaramyl insulin” the “Blood Sugar Concentration” value (blood sugar level) was 40.60 ± 0.80 mg/dL.

For glucosamidoglutaryl insulin, the “Blood Sugar Concentration” value (blood sugar level) was 45.92 ± 3.30 mg/dL.

With Glucosamidosuccinyl insulin the “Blood Sugar Concentration” value (blood sugar level) was 37.80 ± 1.13 mg/dL.

In the case of “p-(α-D-mannopyranosyloxy)-phenyl-N-succinamyl insulin”, the “Time required for aggregation, Bulk” value [1] was 2 weeks, the “Time required … Polyurethane” value [2] was 2 weeks and the “Blood Sugar Concentration” value (blood sugar level) was 44.80 ± 2.37 mg/dL.

With “p-α-D-glucopyranosyloxy)-phenyl-N-glutaramyl insulin” the “Blood Sugar Concentration” value (blood sugar level) was 40.40 ± 2.53 mg/dL.

With “p-(α-D-glucopyranosyloxy)-phenyl-N-succinamyl insulin” the “Time required for aggregation, Bulk” value [1] was 2 weeks, the “Time required … Polyurethane” value [2] was 2 weeks and the “Blood Sugar Concentration” value (blood sugar level) was 40.87 ± 1.32 mg/dL.

For “insulin [Free Insulin, reference compound]”, the “Time required for aggregation, Bulk” value [1] was 2 to 3 days and the “Time required … Polyurethane” value [2] was 1 to 2 days.

With “SIGMA INS (21F-0375): commercial insulin preparation (Sigma) used as comparison” the “Blood Sugar Concentration” value (blood sugar level) was 32.66 ± 1.10 mg/dL.

From patent US4478746A, “Glycosylated insulin derivatives” (priority 1984, dated 1984)
